Test results taken from the supplement of paper PMC10567573.

B1: ZNF449 (parent)
chain: TLHQRTHTEERPFKCNYCGKSFRQ

Variants of: B1
Experiment: protein stability index of a GFP-peptide fusion (GPS, HEK-293T) (PSI 1-6); higher = more stable
Conditions: c terminus: a fixed tail appended
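Note: lentivirally expressed fusions sorted by FACS into six bins by GFP to DsRed ratio, PSI derived from sequencing read proportions per bin multiplied by bin number.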

In order of rising protein stability index:
1. TLHQRTHTEGRPFKCNYCGKSFRQ  1.18
2. TLHQRTHTEERPHKCNYCGKSFRQ  1.39
3. TLHQRTHTEERPFKLNYCGKSFRQ  1.4
4. TLHQRTHTEFRPFKCNYCGKSFRQ  1.48
5. TLHQRTHTELRPFKCNYCGKSFRQ  1.55
6. TLHQRTHTEERPFKCNYCGGSFRQ  1.61
7. TLHQRTHTEERPFKCRYCGKSFRQ  1.65
8. TLHQRTHTEERPRKCNYCGKSFRQ  1.69
9. TLHQRTHTEERPFLCNYCGKSFRQ  1.73
10. TLHQRTHTEERPFKCCYCGKSFRQ  1.73
11. TLHQRTHTECRPFKCNYCGKSFRQ  1.74
12. TLHQRTHTEHRPFKCNYCGKSFRQ  1.78
13. TLHQRTHTEERPFKCNYCGFSFRQ  1.78
14. TLHQRTHTEERPFKCNYCGESFRQ  1.79
15. TLHQRTHTERRPFKCNYCGKSFRQ  1.81
16. TLHQRTHTEERPFKCLYCGKSFRQ  1.85
17. TLHQRTHTEERPFKCNYCGCSFRQ  1.86
18. TLHQRTHTEERPFTCNYCGKSFRQ  1.9
19. TLHQRTHTEPRPFKCNYCGKSFRQ  1.91
20. TLHQRTHTEERPFKCNYCGHSFRQ  1.91
21. TLHQRTHTEEFPFKCNYCGKSFRQ  1.92
22. TLHQRTHTEERPFYCNYCGKSFRQ  1.93
23. TLHQRTHTEERPFKCHYCGKSFRQ  1.93
24. TLHQRTHTEERPFKCNACGKSFRQ  1.93
25. TLHQRTHTEERPFNCNYCGKSFRQ  1.95
26. TLHQRTHTEERPFKCGYCGKSFRQ  1.95
27. TLHQRTHTEERPFKCNYCWKSFRQ  1.97
28. TLHQRTHTEERPFKCNYCGASFRQ  1.97
29. TLHQRTHTEERPFKCNCCGKSFRQ  2
30. TLHQRTHTEKRPFKCNYCGKSFRQ  2.03
31. TLHQRTHTEERPFKCWYCGKSFRQ  2.04
32. TLHQRTHTEERPFKCNYCSKSFRQ  2.06
33. TLHQRTHTEERPLKCNYCGKSFRQ  2.07
34. TLHQRTHTEERPFKCNYCGLSFRQ  2.07
35. TLHQRTHTEEIPFKCNYCGKSFRQ  2.08
36. TLHQRTHTEEWPFKCNYCGKSFRQ  2.09
37. TLHQRTHTEERPFKCNDCGKSFRQ  2.09
38. TLHQRTHTEERPFKCNYCVKSFRQ  2.09
39. TLHQRTHTESRPFKCNYCGKSFRQ  2.1
40. TLHQRTHTEERPFWCNYCGKSFRQ  2.1
41. TLHQRTHTEERPFKCMYCGKSFRQ  2.1
42. TLHQRTHTEERPFKCNYCGISFRQ  2.1
43. TLHQRTHTEEYPFKCNYCGKSFRQ  2.11
44. TLHQRTHTEEPPFKCNYCGKSFRQ  2.12
45. TLHQRTHTEERPFKCNYVGKSFRQ  2.12
46. TLHQRTHTEERPFKCEYCGKSFRQ  2.13
47. TLHQRTHTEERPAKCNYCGKSFRQ  2.14
48. TLHQRTHTEERPFKCNICGKSFRQ  2.14
49. TLHQRTHTEERPFKCNYCAKSFRQ  2.14
50. TLHQRTHTEERPFKCNLCGKSFRQ  2.15
51. TLHQRTHTEERPFKCDYCGKSFRQ  2.16
52. TLHQRTHTEERPMKCNYCGKSFRQ  2.18
53. TLHQRTHTEERPFMCNYCGKSFRQ  2.2
54. TLHQRTHTEERRFKCNYCGKSFRQ  2.21
55. TLHQRTHTEERPYKCNYCGKSFRQ  2.22
56. TLHQRTHTEERPFQCNYCGKSFRQ  2.22
57. TLHQRTHTEERPFKCNFCGKSFRQ  2.22
58. TLHQRTHTEECPFKCNYCGKSFRQ  2.24
59. TLHQRTHTEERPPKCNYCGKSFRQ  2.24
60. TLHQRTHTETRPFKCNYCGKSFRQ  2.25
61. TLHQRTHTEEMPFKCNYCGKSFRQ  2.25
62. TLHQRTHTEESPFKCNYCGKSFRQ  2.25
63. TLHQRTHTEERFFKCNYCGKSFRQ  2.25
64. TLHQRTHTEERTFKCNYCGKSFRQ  2.26
65. TLHQRTHTEERPSKCNYCGKSFRQ  2.26
66. TLHQRTHTEERPFKCNYQGKSFRQ  2.26
67. TLHQRTHTEERPFICNYCGKSFRQ  2.27
68. TLHQRTHTEERPFKCIYCGKSFRQ  2.27
69. TLHQRTHTEERPKKCNYCGKSFRQ  2.28
70. TLHQRTHTEERPFKCNECGKSFRQ  2.3
71. TLHQRTHTEERPFHCNYCGKSFRQ  2.31
72. TLHQRTHTEERPFKCNYCGPSFRQ  2.31
73. TLHQRTHTEERHFKCNYCGKSFRQ  2.32
74. TLHQRTHTEERPFKCNVCGKSFRQ  2.32
75. TLHQRTHTEETPFKCNYCGKSFRQ  2.33
76. TLHQRTHTEERPFKCNYWGKSFRQ  2.33
77. TLHQRTHTEERPFSCNYCGKSFRQ  2.34
78. TLHQRTHTEERPFKCNYCGNSFRQ  2.37
79. TLHQRTHTEERPFKCNYCCKSFRQ  2.38
80. TLHQRTHTEERPFKCNYCFKSFRQ  2.38
81. TLHQRTHTEEAPFKCNYCGKSFRQ  2.39
82. TLHQRTHTEELPFKCNYCGKSFRQ  2.39
83. TLHQRTHTEERPFKCNMCGKSFRQ  2.4
84. TLHQRTHTEERPFKCNYCTKSFRQ  2.4
85. TLHQRTHTEERNFKCNYCGKSFRQ  2.41
86. TLHQRTHTEERPFDCNYCGKSFRQ  2.41
87. TLHQRTHTEENPFKCNYCGKSFRQ  2.42
88. TLHQRTHTEERPFKCNYYGKSFRQ  2.43
89. TLHQRTHTEERPFKCAYCGKSFRQ  2.44
90. TLHQRTHTEERMFKCNYCGKSFRQ  2.45
91. TLHQRTHTEWRPFKCNYCGKSFRQ  2.46
92. TLHQRTHTENRPFKCNYCGKSFRQ  2.48
93. TLHQRTHTEERPFKCNYCNKSFRQ  2.48
94. TLHQRTHTEERPFKANYCGKSFRQ  2.49
95. TLHQRTHTEEKPFKCNYCGKSFRQ  2.5
96. TLHQRTHTEERGFKCNYCGKSFRQ  2.52
97. TLHQRTHTEERSFKCNYCGKSFRQ  2.52
98. TLHQRTHTEEHPFKCNYCGKSFRQ  2.53
99. TLHQRTHTEEVPFKCNYCGKSFRQ  2.54
100. TLHQRTHTEYRPFKCNYCGKSFRQ  2.55
101. TLHQRTHTEERPFKCNSCGKSFRQ  2.55
102. TLHQRTHTEQRPFKCNYCGKSFRQ  2.56
103. TLHQRTHTEERVFKCNYCGKSFRQ  2.57
104. TLHQRTHTEERPFKWNYCGKSFRQ  2.59
105. TLHQRTHTEERPFKCNYCRKSFRQ  2.6
106. TLHQRTHTEERPFKRNYCGKSFRQ  2.61
107. TLHQRTHTEERPFKCYYCGKSFRQ  2.61
108. TLHQRTHTEERPFKCNWCGKSFRQ  2.61
109. TLHQRTHTEERPFKCNYLGKSFRQ  2.61
110. TLHQRTHTEERPFKCNTCGKSFRQ  2.62
111. TLHQRTHTEERPFKVNYCGKSFRQ  2.67
112. TLHQRTHTEERPFKCTYCGKSFRQ  2.67
113. TLHQRTHTEERPFKCNKCGKSFRQ  2.67
114. TLHQRTHTEERPFKCNYCPKSFRQ  2.67
115. TLHQRTHTEERPFKCNYCEKSFRQ  2.68
116. TLHQRTHTEERPFKCNYCYKSFRQ  2.7
117. TLHQRTHTEERPFCCNYCGKSFRQ  2.71
118. TLHQRTHTEERPFKCNYMGKSFRQ  2.72
119. TLHQRTHTEERPFKCNYCLKSFRQ  2.72
120. TLHQRTHTEMRPFKCNYCGKSFRQ  2.73
121. TLHQRTHTEERPFKCNYCMKSFRQ  2.73
122. TLHQRTHTEERPFKCFYCGKSFRQ  2.75
123. TLHQRTHTEERPFKCKYCGKSFRQ  2.76
124. TLHQRTHTEERYFKCNYCGKSFRQ  2.77
125. TLHQRTHTEERQFKCNYCGKSFRQ  2.79
126. TLHQRTHTEERPGKCNYCGKSFRQ  2.79
127. TLHQRTHTEERPFKCNYCKKSFRQ  2.79
128. TLHQRTHTEERPFKCNYCGMSFRQ  2.79
129. TLHQRTHTEERAFKCNYCGKSFRQ  2.81
130. TLHQRTHTEERPFKMNYCGKSFRQ  2.82
131. TLHQRTHTEERPFPCNYCGKSFRQ  2.83
132. TLHQRTHTEERPFKCNYCGDSFRQ  2.83
133. TLHQRTHTEERPFFCNYCGKSFRQ  2.85
134. TLHQRTHTEERPFKCNYFGKSFRQ  2.85
135. TLHQRTHTEERPFKCVYCGKSFRQ  2.86
136. TLHQRTHTEERKFKCNYCGKSFRQ  2.89
137. TLHQRTHTEERWFKCNYCGKSFRQ  2.89
138. TLHQRTHTEERPFKCNYPGKSFRQ  2.91
139. TLHQRTHTEERPDKCNYCGKSFRQ  2.92
140. TLHQRTHTEERPQKCNYCGKSFRQ  2.92
141. TLHQRTHTEERPFKCNRCGKSFRQ  2.92
142. TLHQRTHTEERPFKCNYIGKSFRQ  2.92
143. TLHQRTHTEERPFKCNYCHKSFRQ  2.92
144. TLHQRTHTEERCFKCNYCGKSFRQ  2.94
145. TLHQRTHTEEQPFKCNYCGKSFRQ  2.95
146. TLHQRTHTEERPFKCNYHGKSFRQ  2.96
147. TLHQRTHTEERPFKCNYCQKSFRQ  2.96
148. TLHQRTHTEERPFKFNYCGKSFRQ  2.98
149. TLHQRTHTEERPFKCQYCGKSFRQ  2.98
150. TLHQRTHTEERPFKCNPCGKSFRQ  2.98
151. TLHQRTHTEERPIKCNYCGKSFRQ  3.01
152. TLHQRTHTEERPFKCNYGGKSFRQ  3.02
153. TLHQRTHTEERPFKCSYCGKSFRQ  3.03
154. TLHQRTHTEERLFKCNYCGKSFRQ  3.05
155. TLHQRTHTEERPCKCNYCGKSFRQ  3.05
156. TLHQRTHTEERPFKPNYCGKSFRQ  3.1
157. TLHQRTHTEERDFKCNYCGKSFRQ  3.12
158. TLHQRTHTEERPFKCNYKGKSFRQ  3.12
159. TLHQRTHTEERPFKINYCGKSFRQ  3.13
160. TLHQRTHTEERPFKCNQCGKSFRQ  3.16
161. TLHQRTHTEERPFKCNYSGKSFRQ  3.17
162. TLHQRTHTEEDPFKCNYCGKSFRQ  3.19
163. TLHQRTHTEERPFKCNNCGKSFRQ  3.21
164. TLHQRTHTEEEPFKCNYCGKSFRQ  3.24
165. TLHQRTHTEEREFKCNYCGKSFRQ  3.26
166. TLHQRTHTEERPFKYNYCGKSFRQ  3.26
167. TLHQRTHTEERIFKCNYCGKSFRQ  3.29
168. TLHQRTHTEERPFKTNYCGKSFRQ  3.29
169. TLHQRTHTEERPFKCNYCIKSFRQ  3.3
170. TLHQRTHTEVRPFKCNYCGKSFRQ  3.31
171. TLHQRTHTEERPFKCPYCGKSFRQ  3.32
172. TLHQRTHTEERPFKQNYCGKSFRQ  3.37
173. TLHQRTHTEERPFKCNYRGKSFRQ  3.38
174. TLHQRTHTEIRPFKCNYCGKSFRQ  3.39
175. TLHQRTHTEERPFKHNYCGKSFRQ  3.4
176. TLHQRTHTEERPFKCNYTGKSFRQ  3.4
177. TLHQRTHTEERPFKCNYCDKSFRQ  3.4
178. TLHQRTHTEERPFKNNYCGKSFRQ  3.41
179. TLHQRTHTEERPFKGNYCGKSFRQ  3.43
180. TLHQRTHTEERPFKCNYDGKSFRQ  3.48
181. TLHQRTHTEERPNKCNYCGKSFRQ  3.54
182. TLHQRTHTEERPFKKNYCGKSFRQ  3.55
183. TLHQRTHTEERPFKCNYAGKSFRQ  3.61
184. TLHQRTHTEERPFKCNYNGKSFRQ  3.68
185. TLHQRTHTEERPFKSNYCGKSFRQ  3.7
186. TLHQRTHTEERPTKCNYCGKSFRQ  3.78
187. TLHQRTHTEERPFKCNYEGKSFRQ  3.78
188. TLHQRTHTEERPFKDNYCGKSFRQ  3.87
